In US10703784B2, “Antigens and epitopes derived from Mycobacterium tuberculosis” (priority 2011, dated 2020):

Tested on: PBMCs from LTBI donors (IFN-γ production)
Assay type: cell-based, human
Details: ex vivo IFN-γ ELISPOT; for Resp. freq.: fraction of 28 LTBI donors responding to epitopes of the antigen; for Total SFC: total spot-forming cells, LTBI donors

B1: Rv0124: MTB protein, novel CD4 T cell antigen; PE/PPE (protein, listed as Mycobacterium tuberculosis)
chain: MSFVSVAPEIVVAAATDLAGIGSAISAANAAAAAPTTAVLAAGADEVSAAIAALSGHAQAYQALSAQAAAFHQQFVQTLAGGAGAYAAAEAQVEQQLLAAINAPTQALLGRPLIGNGADGAPGTGQAGGAGGILYGNGGNGGSGAAGQAGGAGGPAGLIGHGGSGGAGGSGAAGGAGGHGGWLWGNGGVGGSGGAGVGAGVAGGHGGAGGAAGLWGAGGGGGNGGNGADANIVSGGDGGLGGAGGGGGWLYGDGGAGGHGGQGAIGLGGGAGGDGGQGGAGRGLWGTGGAGGHGGQGGGTGGPPLPGQAGMGAAGGAGGLIGNGGAGGDGGVGASGGVAGVGGAGGNAMLIGHGGAGGAGGDSSFANGAAGGAGGAGGHLFGNGGSGGHGGAVTAGNTGIGGAGGVGGDARLIGHGGAGGAGGDRAGALVGRDGGPGGNGGAGGQLYGNGGDGAPGTGGTLQAAVSGLVTALFGAPGQPGDTGQPG
  Resp. freq.: 14%
  Total SFC: 177 SFC

B2: Rv3876: MTB protein, novel CD4 T cell antigen; Cell wall and cell processes, Island 3, Esx-1 (protein, listed as Mycobacterium tuberculosis)
chain: MAADYDKLFRPHEGMEAPDDMAAQPFFDPSASFPPAPASANLPKPNGQTPPPTSDDLSERFVSAPPPPPPPPPPPPPTPMPIAAGEPPSPEPAASKPPTPPMPIAGPEPAPPKPPTPPMPIAGPEPAPPKPPTPPMPIAGPAPTPTESQLAPPRPPTPQTPTGAPQQPESPAPHVPSHGPHQPRRTAPAPPWAKMPIGEPPPAPSRPSASPAEPPTRPAPQHSRRARRGHRYRTDTERNVGKVATGPSIQARLRAEEASGAQLAPGTEPSPAPLGQPRSYLAPPTRPAPTEPPPSPSPQRNSGRRAERRVHPDLAAQHAAAQPDSITAATTGGRRRKRAAPDLDATQKSLRPAAKGPKVKKVKPQKPKATKPPKVVSQRGWRHWVHALTRINLGLSPDEKYELDLHARVRRNPRGSYQIAVVGLKGGAGKTTLTAALGSTLAQVRADRILALDADPGAGNLADRVGRQSGATIADVLAEKELSHYNDIRAHTSVNAVNLEVLPAPEYSSAQRALSDADWHFIADPASRFYNLVLADCGAGFFDPLTRGVLSTVSGVVVVASVSIDGAQQASVALDWLRNNGYQDLASRACVVINHIMPGEPNVAVKDLVRHFEQQVQPGRVVVMPWDRHIAAGTEISLDLLDPIYKRKVLELAAALSDDFERAGRR
  Resp. freq.: 18%
  Total SFC: 1323 SFC

B3: Rv0291: MTB protein, novel CD4 T cell antigen; Intermediary metabolism and respiration, Island 1 (protein, listed as Mycobacterium tuberculosis)
chain: MIRAAFACLAATVVVAGWWTPPAWAIGPPVVDAAAQPPSGDPGPVAPMEQRGACSVSGVIPGTDAGVPTPSQTMLNLPAAWQFSRGEGQLVAIIDTGVQPGPRLPNVDAGGDFVESTDGLTDCDGHGTLVAGIVAGQPGNDGFSGVAPAARLLSIRAMSTKFSPRTSGGDPQLAQATLDVAVLAGAIVHAADLGAKVINVSTITCLPADRMVDQAALGAAIRYAAVDKDAVIVAAAGNTGASGSVSASCDSNPLTDLSRPDDPRNWAGVTSVSIPSWWQPYVLSVASLTSAGQPSKFSMPGPWVGIAAPGENIASVSNSGDGALANGLPDAHQKLVALSGTSYAAGYVSGVAALVRSRYPGLNATEVVRRLTATAHRGARESSNIVGAGNLDAVAALTWQLPAEPGGGAAPAKPVADPPVPAPKDTTPRNVAFAGAAALSVLVGLTAATVAIARRRREPTE
  Resp. freq.: 14%
  Total SFC: 1153 SFC

B4: Rv3135: MTB protein, novel CD4 T cell antigen; PE/PPE (protein, listed as Mycobacterium tuberculosis)
chain: MVLGFSWLPPEINSARMFAGAGSGPLFAAASAWEGLAADLWASASSFESVLAALTTGPWTGPASMSMAAAASPYVGWLSTVASQAQLAAIQARAAATAFEAALAATVHPTAVTANRVSLASLIAANVLGQNTPAIAATEFDYLEMWAQDVAAMVGYHAGAKSVAATLAPFSLPPVSLAGLAAQVGTQVAGMATTASAAVTPVVEGAMASVPTVMSGMQSLVSQLPLQHASMLFLPVRILTSPITTLASMARESATRLGPPAGGLAAANTPNPSGAAIPAFKPLGGRELGAGMSAGLGQAQLVGSMSVPPTWQGSIPISMASSAMSGLGVPPNPVALTQAAGAAGGGMPMMLMPMSISGAGAGMPGGLMDRDGAGWHVTQARLTVIPRTGVG
  Resp. freq.: 18%
  Total SFC: 317 SFC

B5: Rv2874: MTB protein, novel CD4 T cell antigen; Intermediary metabolism and respiration (protein, listed as Mycobacterium tuberculosis)
chain: MVESRRAAAAASAYASRCGIAPATSQRSLATPPTISVPSGEGRCRCHVARGAGRDPRRRLRRRRWCGRCGYHSHLTGGEFDVNRLCQQRSRERSCQLVAVPADPRPKRQRITDVLTLALVGFLGGLITGISPCILPVLPVIFFSGAQSVDAAQVAKPEGAVAVRRKRALSATLRPYRVIGGLVLSFGMVTLLGSALLSVLHLPQDAIRWAALVALVAIGAGLIFPRFEQLLEKPFSRIPQKQIVTRSNGFGLGLALGVLYVPCAGPILAAIVVAGATATIGLGTVVLTATFALGAALPLLFFALAGQRIAERVGAFRRRQREIRIATGSVTILLAVALVFDLPAALQRAIPDYTASLQQQISTGTEIREQLNLGGIVNAQNAQLSNCSDGAAQLESCGTAPDLKGITGWLNTPGNKPIDLKSLRGKVVLIDFWAYSCINCQRAIPHVVGWYQAYKDSGLAVIGVHTPEYAFEKVPGNVAKGAANLGISYPIALDNNYATWTNYRNRYWPAEYLIDATGTVRHIKFGEGDYNVTETLVRQLLNDAKPGVKLPQPSSTTTPDLTPRAALTPETYFGVGKVVNYGGGGAYDEGSAVFDYPPSLAANSFALRGRWALDYQGATSDGNDAAIKLNYHAKDVYIVVGGTGTLTVVRDGKPATLPISGPPTTHQVVAGYRLASETLEVRPSKGLQVFSFTYG
  Resp. freq.: 18%
  Total SFC: 798 SFC

B6: Rv0293c: MTB protein, novel CD4 T cell antigen; Conserved hypotheticals, Island 1 (protein, listed as Mycobacterium tuberculosis)
chain: MSGTFTADAIGPPVPIPDVPGADAGAEGLPSRSVLSARQRILVESSAIADVALRTAVASVLSATVTPAVVANALRHVNEGSERSNLNFYAELAAAHDPAKSFPAPTELPKVTSRPASPLTEWVARGTVDNIAFASGFRAINPTMRQRWSALTANNIVHAQHWRHRDGPRPTLCVIHGFMGSSYLLNGLFFSLPWYYRSGYDVLLYTLPFHGQRAEKFSPFSGFGYFTSGLSGFAEAMAQAVYDFRSIVDYLRHIGVDRIALTGISLGGYTSALLASVESRLEAVIPNCPVVMPAKLFDEWFPANKLVKLGLRLTNISRDELIAGLAYHGPLNYRPLLPKDRRMIITGLGDRMAPPEHAVTLWKQWDRCALHWFPGSHLLHVSQLDYLRRMTVFLQGLMFD
  Resp. freq.: 14%
  Total SFC: 1073 SFC

B7: Rv0292: MTB protein, novel CD4 T cell antigen; Cell wall and cell processes, Island 1, Esx-3 (protein, listed as Mycobacterium tuberculosis)
chain: MNPIPSWPGRGRVTLVLLAVVPVALAYPWQSTRDYVLLGVAAAVVIGLFGFWRGLYFTTIARRGLAILRRRRRIAEPATCTRTTVLVWVGPPASDTNVLPLTLIARYLDRYGIRADTIRITSRVTASGDCRTWVGLTVVADDNLAALQARSARIPLQETAQVAARRLADHLREIGWEAGTAAPDEIPALVAADSRETWRGMRHTDSDYVAAYRVSANAELPDTLPAIRSRPAQETWIALEIAYAAGSSTRYTVAAACALRTDWRPGGTAPVAGLLPQHGNHVPALTALDPRSTRRLDGHTDAPADLLTRLHWPTPTAGAHRAPLTNAVSRT
  Resp. freq.: 14%
  Total SFC: 708 SFC
